Data reported in patent US20180326022A1, “COMPOSITIONS AND METHODS FOR IMPROVING HEART FUNCTION AND TREATING HEART FAILURE” (The Trustees of the University of Pennsylvania, priority 2017, published 2018).

Target: detyrosinated microtubules (rat cardiomyocytes) (rat)
Test: cell-based or functional assay

human tubulin tyrosine ligase (TTL) (from UniProt Q8NG68 1-377)
Detyr (% cell area), immunofluorescence, TTL overexpressing cells (null: 43.9): 12.9 % cell area
